Data as given in US20090131331A1 (DSM IP ASSETS B V, published 2009).

Columns and labels:
[1] = target: angiotensin I converting enzyme (ACE); assay: cell-based or functional assay
[2] = target: angiotensin I converting enzyme (ACE); assay: cell-based or functional assay; remark: listed apart in the source

Binder | ACE inhibition (IC50 value), at-line ACE assay (cleavage of HHL) [1] [µM] | ACE inhibition (IC50 value), modified Matsui assay (cleavage of Hip-His-Leu) [1] [µM] | IC50 value in the Modified Matsui test (ACE inhibition) [2] [µM]
MAP [tripeptide Methionine-Alanine-Proline (Met-Ala-Pro)] | 3.8 | 0.4 | 0.5
IPP [tripeptide IPP] | 7.1 | 2 | –
ITP [tripeptide Isoleucine-Threonine-Proline (Ile-Thr-Pro)] | 50 | 10 | –
